# According to patent US20250218531A1 (ABSCI, published 2025):
# Where a chain is given by its changes, count along the chain named.
# B1: Trastuzumab HCDR3 variant AKYGRSDYGFEH (Fab, V domains shown)
# VH: EVQLVESGGGLVQPGGSLRLSCAASGFNIKDTYIHWVRQAPGKGLEWVARIYPTNGYTRYADSVKGRFTISADTSKNTAYLQMNSLRAEDTAVYYCAKYGRSDYGFEHWGQGTLVTVSS
# VL: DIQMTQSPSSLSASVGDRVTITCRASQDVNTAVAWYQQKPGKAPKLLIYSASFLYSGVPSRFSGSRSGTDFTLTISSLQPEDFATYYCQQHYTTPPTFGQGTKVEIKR
# B2: Trastuzumab HCDR3 variant ARYYDDTIYSFY (Fab, V domains shown)
# VH: B1 VH with K98R, G100Y, R101D, S102D, D103T, Y104I, G105Y, F106S, E107F, H108Y
# VL: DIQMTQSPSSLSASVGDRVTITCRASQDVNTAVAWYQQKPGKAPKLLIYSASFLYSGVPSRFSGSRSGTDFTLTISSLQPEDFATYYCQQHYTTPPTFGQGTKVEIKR
# B3: Trastuzumab HCDR3 variant ARYLSYSYAWDY (Fab, V domains shown)
# VH: B1 VH with K98R, G100L, R101S, S102Y, D103S, G105A, F106W, E107D, H108Y
# VL: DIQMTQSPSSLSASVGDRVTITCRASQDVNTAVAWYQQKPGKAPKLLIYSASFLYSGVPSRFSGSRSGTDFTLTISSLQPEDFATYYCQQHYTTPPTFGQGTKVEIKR
# B4: Trastuzumab HCDR3 variant ARYYGYYYYMDY (Fab, V domains shown)
# VH: B1 VH with K98R, G100Y, R101G, S102Y, D103Y, G105Y, F106M, E107D, H108Y
# VL: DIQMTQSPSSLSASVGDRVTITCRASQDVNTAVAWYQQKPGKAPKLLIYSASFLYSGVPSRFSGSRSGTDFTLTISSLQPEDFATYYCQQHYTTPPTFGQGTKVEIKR
# B5: Trastuzumab HCDR3 variant ARSYYGAYYFDY (Fab, V domains shown)
# VH: B1 VH with K98R, Y99S, G100Y, R101Y, S102G, D103A, G105Y, E107D, H108Y
# VL: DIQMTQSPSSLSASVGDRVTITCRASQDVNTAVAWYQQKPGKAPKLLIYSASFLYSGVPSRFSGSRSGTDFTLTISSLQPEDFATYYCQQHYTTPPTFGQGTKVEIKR
# B6: Trastuzumab HCDR3 variant ARYGVYGYAMDY (Fab, V domains shown)
# VH: B1 VH with K98R, R101V, S102Y, D103G, G105A, F106M, E107D, H108Y
# VL: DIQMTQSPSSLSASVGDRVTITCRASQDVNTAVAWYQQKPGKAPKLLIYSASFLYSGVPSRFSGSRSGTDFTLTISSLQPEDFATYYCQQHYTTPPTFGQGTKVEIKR
# B7: Trastuzumab HCDR3 variant ARYGTYGYAMDY (Fab, V domains shown)
# VH: B1 VH with K98R, R101T, S102Y, D103G, G105A, F106M, E107D, H108Y
# VL: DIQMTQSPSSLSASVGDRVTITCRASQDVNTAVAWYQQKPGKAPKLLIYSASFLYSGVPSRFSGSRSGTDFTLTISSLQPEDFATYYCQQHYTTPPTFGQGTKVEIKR
# B8: Trastuzumab HCDR3 variant ARYGRDYYYFDV (Fab, V domains shown)
# VH: B1 VH with K98R, S102D, D103Y, G105Y, E107D, H108V
# VL: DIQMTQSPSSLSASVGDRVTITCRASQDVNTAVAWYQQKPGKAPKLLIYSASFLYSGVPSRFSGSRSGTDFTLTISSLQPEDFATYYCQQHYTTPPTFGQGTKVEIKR
# B9: Trastuzumab HCDR3 variant ARNYVYWYGMTV (Fab, V domains shown)
# VH: B1 VH with K98R, Y99N, G100Y, R101V, S102Y, D103W, F106M, E107T, H108V
# VL: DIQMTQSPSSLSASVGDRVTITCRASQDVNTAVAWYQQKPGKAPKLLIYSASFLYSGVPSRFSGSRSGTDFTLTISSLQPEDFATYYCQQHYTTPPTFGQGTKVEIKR
# B10: Trastuzumab HCDR3 variant ARYLSYSFAWDY (Fab, V domains shown)
# VH: B1 VH with K98R, G100L, R101S, S102Y, D103S, Y104F, G105A, F106W, E107D, H108Y
# VL: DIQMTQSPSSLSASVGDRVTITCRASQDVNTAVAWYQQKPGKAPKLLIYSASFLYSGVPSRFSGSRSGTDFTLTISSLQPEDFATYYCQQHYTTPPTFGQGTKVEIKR
# B11: Trastuzumab HCDR3 variant ARYPEDFYYFDV (Fab, V domains shown)
# VH: B1 VH with K98R, G100P, R101E, S102D, D103F, G105Y, E107D, H108V
# VL: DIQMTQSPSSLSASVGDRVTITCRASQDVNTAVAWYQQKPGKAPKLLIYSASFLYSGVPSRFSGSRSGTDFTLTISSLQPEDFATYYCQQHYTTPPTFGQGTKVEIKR
# B12: Trastuzumab HCDR3 variant ARASWYWYGGDK (Fab, V domains shown)
# VH: B1 VH with K98R, Y99A, G100S, R101W, S102Y, D103W, F106G, E107D, H108K
# VL: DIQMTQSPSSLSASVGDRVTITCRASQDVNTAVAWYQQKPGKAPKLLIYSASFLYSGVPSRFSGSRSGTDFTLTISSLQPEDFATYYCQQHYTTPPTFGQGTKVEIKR
# B13: Trastuzumab HCDR3 variant ARYGYYGYWFDY (Fab, V domains shown)
# VH: B1 VH with K98R, R101Y, S102Y, D103G, G105W, E107D, H108Y
# VL: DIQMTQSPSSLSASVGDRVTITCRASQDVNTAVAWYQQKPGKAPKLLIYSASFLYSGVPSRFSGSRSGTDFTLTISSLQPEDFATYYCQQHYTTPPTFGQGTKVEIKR
# B14: Trastuzumab HCDR3 variant ALLYGYYPSGVG (Fab, V domains shown)
# VH: EVQLVESGGGLVQPGGSLRLSCAASGFNIKDTYIHWVRQAPGKGLEWVARIYPTNGYTRYADSVKGRFTISADTSKNTAYLQMNSLRAEDTAVYYCALLYGYYPSGVGWGQGTLVTVSS
# VL: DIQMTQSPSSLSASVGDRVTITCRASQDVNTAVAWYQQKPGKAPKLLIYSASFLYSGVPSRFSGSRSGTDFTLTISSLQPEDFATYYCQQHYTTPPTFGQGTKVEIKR
# B15: Trastuzumab HCDR3 variant ARWLYYGYYFDY (Fab, V domains shown)
# VH: B1 VH with K98R, Y99W, G100L, R101Y, S102Y, D103G, G105Y, E107D, H108Y
# VL: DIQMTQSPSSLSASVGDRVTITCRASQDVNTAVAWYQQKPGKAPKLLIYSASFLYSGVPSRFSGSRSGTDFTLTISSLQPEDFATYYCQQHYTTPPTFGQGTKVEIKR
# B16: Trastuzumab HCDR3 variant ARYHNTGYFWGA (Fab, V domains shown)
# VH: B1 VH with K98R, G100H, R101N, S102T, D103G, G105F, F106W, E107G, H108A
# VL: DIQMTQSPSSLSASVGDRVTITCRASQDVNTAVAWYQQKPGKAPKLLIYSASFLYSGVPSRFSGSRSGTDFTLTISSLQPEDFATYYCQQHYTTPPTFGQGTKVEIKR
# B17: Trastuzumab HCDR3 variant ARSGEGYYAFDY (Fab, V domains shown)
# VH: B1 VH with K98R, Y99S, R101E, S102G, D103Y, G105A, E107D, H108Y
# VL: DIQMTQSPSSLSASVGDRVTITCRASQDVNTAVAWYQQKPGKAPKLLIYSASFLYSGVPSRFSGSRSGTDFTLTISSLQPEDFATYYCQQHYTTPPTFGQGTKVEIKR
# B18: Trastuzumab HCDR3 variant ARYPDYYYAMDY (Fab, V domains shown)
# VH: B1 VH with K98R, G100P, R101D, S102Y, D103Y, G105A, F106M, E107D, H108Y
# VL: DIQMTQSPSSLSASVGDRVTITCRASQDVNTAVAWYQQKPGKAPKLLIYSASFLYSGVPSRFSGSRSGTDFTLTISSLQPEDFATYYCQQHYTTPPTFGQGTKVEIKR
# B19: Trastuzumab HCDR3 variant ARYYGGLYYFDY (Fab, V domains shown)
# VH: B1 VH with K98R, G100Y, R101G, S102G, D103L, G105Y, E107D, H108Y
# VL: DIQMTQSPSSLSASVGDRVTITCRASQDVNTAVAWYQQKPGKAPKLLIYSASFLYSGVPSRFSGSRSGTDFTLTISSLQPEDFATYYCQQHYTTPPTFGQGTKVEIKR
# B20: Trastuzumab HCDR3 variant ARYGSGYYGLDY (Fab, V domains shown)
# VH: B1 VH with K98R, R101S, S102G, D103Y, F106L, E107D, H108Y
# VL: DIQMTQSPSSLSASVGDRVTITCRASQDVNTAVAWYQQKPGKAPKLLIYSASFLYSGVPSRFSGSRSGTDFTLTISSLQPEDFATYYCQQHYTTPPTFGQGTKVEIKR
# B21: Trastuzumab HCDR3 variant ARHHYSGYFHDV (Fab, V domains shown)
# VH: B1 VH with K98R, Y99H, G100H, R101Y, D103G, G105F, F106H, E107D, H108V
# VL: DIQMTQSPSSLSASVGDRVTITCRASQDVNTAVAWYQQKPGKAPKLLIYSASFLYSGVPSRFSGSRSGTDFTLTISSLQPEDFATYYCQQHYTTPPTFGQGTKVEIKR
# B22: Trastuzumab HCDR3 variant ARYADYQFHFDN (Fab, V domains shown)
# VH: B1 VH with K98R, G100A, R101D, S102Y, D103Q, Y104F, G105H, E107D, H108N
# VL: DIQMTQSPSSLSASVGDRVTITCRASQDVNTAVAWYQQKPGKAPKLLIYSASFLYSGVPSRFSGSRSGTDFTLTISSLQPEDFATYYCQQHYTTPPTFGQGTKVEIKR
# B23: Trastuzumab HCDR3 variant ARYGGAGYYLDY (Fab, V domains shown)
# VH: B1 VH with K98R, R101G, S102A, D103G, G105Y, F106L, E107D, H108Y
# VL: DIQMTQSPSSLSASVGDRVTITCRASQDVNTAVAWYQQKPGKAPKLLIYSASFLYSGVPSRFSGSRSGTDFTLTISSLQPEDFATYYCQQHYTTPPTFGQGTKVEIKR
# B24: Trastuzumab HCDR3 variant ARHGSYYYDFDF (Fab, V domains shown)
# VH: B1 VH with K98R, Y99H, R101S, S102Y, D103Y, G105D, E107D, H108F
# VL: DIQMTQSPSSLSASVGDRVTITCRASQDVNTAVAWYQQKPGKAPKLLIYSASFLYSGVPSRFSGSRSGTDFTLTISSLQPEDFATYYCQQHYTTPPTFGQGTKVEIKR
# B25: Trastuzumab HCDR3 variant ARWSWPGYEFEF (Fab, V domains shown)
# VH: B1 VH with K98R, Y99W, G100S, R101W, S102P, D103G, G105E, H108F
# VL: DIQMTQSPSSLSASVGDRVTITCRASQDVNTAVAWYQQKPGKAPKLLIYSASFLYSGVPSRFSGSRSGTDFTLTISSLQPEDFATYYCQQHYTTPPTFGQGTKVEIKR
# B26: Trastuzumab HCDR3 variant ALYKRYDYAFGY (Fab, V domains shown)
# VH: B1 VH with K98L, G100K, S102Y, G105A, E107G, H108Y
# VL: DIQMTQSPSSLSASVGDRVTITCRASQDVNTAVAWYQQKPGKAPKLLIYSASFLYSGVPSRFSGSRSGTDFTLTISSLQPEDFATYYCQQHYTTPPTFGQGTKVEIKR
# Molecular target: human epidermal growth factor receptor 2 (HER2) extracellular domain (human, UniProt P04626 23-629)
# Assay: SPR
Binder,Kd [nM],log(KD (M))
B1,133,-6.88 log(M)
B2,29.9,-7.53 log(M)
B3,54.8,-7.26 log(M)
B4,74.3,-7.13 log(M)
B5,202,-6.7 log(M)
B6,53.3,-7.27 log(M)
B7,65.5,-7.18 log(M)
B8,106,-6.97 log(M)
B9,27.5,-7.56 log(M)
B10,59.9,-7.22 log(M)
B11,40.2,-7.4 log(M)
B12,37.8,-7.42 log(M)
B13,59.4,-7.23 log(M)
B14,262,-6.58 log(M)
B15,28,-7.55 log(M)
B16,61,-7.22 log(M)
B17,210,-6.68 log(M)
B18,117,-6.93 log(M)
B19,34.4,-7.46 log(M)
B20,51.5,-7.29 log(M)
B21,148,-6.83 log(M)
B22,39.6,-7.4 log(M)
B23,32.4,-7.49 log(M)
B24,56.6,-7.25 log(M)
B25,177,-6.75 log(M)
B26,86.6,-7.06 log(M)
